In publication PMC3536758 one finds binding data, which are given here for one sequence.

The data set concerns the target T1, MBP-ComKBco (Bacillus coagulans DSM 1) (UniProt K4MVI2).
T1 sequence: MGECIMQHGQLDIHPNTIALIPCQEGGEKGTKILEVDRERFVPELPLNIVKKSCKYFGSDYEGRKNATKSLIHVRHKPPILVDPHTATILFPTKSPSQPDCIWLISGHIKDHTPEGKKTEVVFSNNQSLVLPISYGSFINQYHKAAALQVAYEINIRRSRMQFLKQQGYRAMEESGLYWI
Briefly: EMSA. To be noted: EMSA: binding buffer (composition not given) with poly(dI-dC), premixed on ice, 20 min at 30 C; 6% polyacrylamide gel in 1x TBE, 90 V, 60 min; pH and salt not …. Background: Mobility shift assays separate free from complexed probe on a gel.

As to “ACGGGTACCATTTGCCGGAAATCGACGTGCCGGCAGCAGGACATAAAAGTGACCCGGTCGCAATAAAGGGGCAATAAGTTTTCGGCATGTTCATCCTTGCCATTACATATGCTTAATATCGCCCGTTGCTTGCCGGTAGCGAACCAAGAAAATACCATATGCTGAAAGATCAGAGGGATCAAACATGCATGGATTATGGACAGCTTATTTTGCGGGGCCCCGT (double strand) [comCBco promoter]”, the binding entry was “binds more weakly”.
